Data: the RNAGym collection of RNA variant scans (doi:10.1093/molbev/msab373)

B1: Azoarcus group I ribozyme (parent)
chain: GUGCCUUGCGCCGGGAAACCACGCAAGGGAUGGUGUCAAAUUCGGCGAAACCUAAGCGCCCGCCCGGGCGUAUGGCAACGCCGAGCCAAGCUUCGGCGCCUGCGCCGAUGAAGGUGUAGAGACUAGACGGCACCCACCUAAGGCAAACGCUAUGGUGAAGGCAUAGUCCAGGGAGUGGCGAAAGUCACACAAACCGG

Variants of: B1
Experiment: reverse-splicing fitness (ratio to wild type); higher = more active; in vitro selection; Mg2+ level not given
Method in brief: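 An in vitro group I ribozyme library with randomized positions was T7-transcribed and gel-purified. In triplicate, 10 pmol RNA in EPPS pH 7.5 was reacted with 50 pmoles of a 30-nt RNA substrate for 1 h at 37 °C across several added MgCl2 levels (1–48 mM), then stopped with EDTA. Products were reverse transcribed from a substrate-complementary primer, PCR-amplified and sequenced (HiSeq 4000). Fitness is a variant's read proportion after selection over that before, normalised to wild type.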

Q: For A111C A120C A145U C169G, which reverse-splicing fitness is on record?
A: 0.00945

Q: Which reverse-splicing fitness does the source give for A111C A120C A145U C169U here?
A: 0.189

Q: With A111C A120C A145U C169A as the variant, how does the reverse-splicing fitness read?
A: 0.0119

Q: For A111C A120C A145G C169A U176G, which reverse-splicing fitness is on record?
A: 0.0054

Q: Which reverse-splicing fitness does the source give for A111C A120C A145G C169A U176C here?
A: 0.0284

Q: With A111C A120C A145G C169A U176A as the variant, how does the reverse-splicing fitness read?
A: 0.0222

Q: Which reverse-splicing fitness does the source give for A111C A120G A145G C150A C169G U176G here?
A: 0.00523

Q: With A111C A120G A145G C150A C169G U176A as the variant, how does the reverse-splicing fitness read?
A: 0.0195

Q: For A111C A120G A145G C150A C169G U176C, which reverse-splicing fitness is on record?
A: 0.0342

Q: Which reverse-splicing fitness does the source give for A111C A120G A145C C150A C169G U176C here?
A: 0.0161

Q: With A111C A120G A145C C150A C169G U176G as the variant, how does the reverse-splicing fitness read?
A: 0.00527

Q: Which reverse-splicing fitness does the source give for A111C A120G A145C C150A C169G U176A here?
A: 0.024

Q: For A111C A120C A145U C150U C169A U176G, which reverse-splicing fitness is on record?
A: 0.00715

Q: For A111C A120C A145U C150U C169A U176C, which reverse-splicing fitness is on record?
A: 0.00838

Q: Which reverse-splicing fitness does the source give for A111C A120C A145U C150U C169A U176A here?
A: 0.012

Q: With A111C A120C A145G C150U C169A as the variant, how does the reverse-splicing fitness read?
A: 0.0131

Q: Which reverse-splicing fitness does the source give for A111C A120C A145G C150U C169U here?
A: 0.147

Q: Which reverse-splicing fitness does the source give for A111C A120C A145G C150U C169G here?
A: 0.00981

Q: For A111C A120G A145G C169A, which reverse-splicing fitness is on record?
A: 0.123

Q: For A111C A120G A145G C169U, which reverse-splicing fitness is on record?
A: 0.167

Q: Which reverse-splicing fitness does the source give for A111C A120G A145G C169G here?
A: 0.227

Q: Which reverse-splicing fitness does the source give for A111C A120C C169G U176C here?
A: 0.021

Q: For A111C A120C C169G U176G, which reverse-splicing fitness is on record?
A: 0.00524

Q: For A111C A120C C169G U176A, which reverse-splicing fitness is on record?
A: 0.0157

Q: Which reverse-splicing fitness does the source give for A111C A120C A145U C150U C169U U176G here?
A: 0.00661

Q: With A111C A120C A145U C150U C169U U176C as the variant, how does the reverse-splicing fitness read?
A: 0.0374

Q: For A111C A120C A145U C150U C169U U176A, which reverse-splicing fitness is on record?
A: 0.028

Q: For A111C A120C A145U C150U, which reverse-splicing fitness is on record?
A: 0.415

Q: Which reverse-splicing fitness does the source give for A111C A120C A145U C150A here?
A: 0.0648

Q: For A111C A120C A145U C150G, which reverse-splicing fitness is on record?
A: 0.0621

Q: Which reverse-splicing fitness does the source give for A111C A120G A145G C150A C169U U176G here?
A: 0.00466

Q: With A111C A120G A145G C150A C169U U176C as the variant, how does the reverse-splicing fitness read?
A: 0.0241

Q: With A111C A120G A145G C150A C169U U176A as the variant, how does the reverse-splicing fitness read?
A: 0.0227

Q: Which reverse-splicing fitness does the source give for A111C A120C C150A C169G U176A here?
A: 0.0198

Q: For A111C A120C C150A C169G U176C, which reverse-splicing fitness is on record?
A: 0.021

Q: For A111C A120C C150A C169G U176G, which reverse-splicing fitness is on record?
A: 0.00744

Q: With A111C A120G A145C C150U U176A as the variant, how does the reverse-splicing fitness read?
A: 0.0163

Q: For A111C A120G A145C C150U U176C, which reverse-splicing fitness is on record?
A: 0.0189

Q: Which reverse-splicing fitness does the source give for A111C A120G A145C C150U U176G here?
A: 0.00427

Q: With A111C A120C A145G C169U U176C as the variant, how does the reverse-splicing fitness read?
A: 0.0425

Q: For A111C A120C A145G C169U U176A, which reverse-splicing fitness is on record?
A: 0.033

Q: For A111C A120C A145G C169U U176G, which reverse-splicing fitness is on record?
A: 0.00591

Q: Which reverse-splicing fitness does the source give for A111C A120G A145U here?
A: 0.179

Q: For A111C A120G A145C, which reverse-splicing fitness is on record?
A: 0.149

Q: With A111C A120G A145G as the variant, how does the reverse-splicing fitness read?
A: 0.189

Q: With A111C A120C A145G C150U C169A U176A as the variant, how does the reverse-splicing fitness read?
A: 0.014

Q: Which reverse-splicing fitness does the source give for A111C A120C A145G C150U C169A U176G here?
A: 0.00559

Q: For A111C A120C A145G C150U C169A U176C, which reverse-splicing fitness is on record?
A: 0.0144

Q: Which reverse-splicing fitness does the source give for A111C A120C A145G C150G C169A here?
A: 0.009

Q: With A111C A120C A145G C150G C169G as the variant, how does the reverse-splicing fitness read?
A: 0.00738

Q: With A111C A120C A145G C150G C169U as the variant, how does the reverse-splicing fitness read?
A: 0.0264

Q: With A111C A120G A145C C150G C169U U176A as the variant, how does the reverse-splicing fitness read?
A: 0.0111

Q: Which reverse-splicing fitness does the source give for A111C A120G A145C C150G C169U U176C here?
A: 0.013

Q: Which reverse-splicing fitness does the source give for A111C A120G A145C C150G C169U U176G here?
A: 0.004

Q: Which reverse-splicing fitness does the source give for A111C A120C A145U C150G C169A U176C here?
A: 0.00906

Q: For A111C A120C A145U C150G C169A U176G, which reverse-splicing fitness is on record?
A: 0.00619

Q: For A111C A120C A145U C150G C169A U176A, which reverse-splicing fitness is on record?
A: 0.0107

Q: With A111C A120G A145C C150U C169G U176A as the variant, how does the reverse-splicing fitness read?
A: 0.0253

Q: With A111C A120G A145C C150U C169G U176C as the variant, how does the reverse-splicing fitness read?
A: 0.0221

Q: Which reverse-splicing fitness does the source give for A111C A120G A145C C150U C169G U176G here?
A: 0.00474

Q: For A111C A120C C150G C169G, which reverse-splicing fitness is on record?
A: 0.00757

Q: With A111C A120C C150G C169A as the variant, how does the reverse-splicing fitness read?
A: 0.00914

Q: Which reverse-splicing fitness does the source give for A111C A120C C150G C169U here?
A: 0.02

Q: Which reverse-splicing fitness does the source give for A111C A120G here?
A: 0.185

Q: With A111C A120C A145G C150G C169G U176G as the variant, how does the reverse-splicing fitness read?
A: 0.00553

Q: Which reverse-splicing fitness does the source give for A111C A120C A145G C150G C169G U176A here?
A: 0.0102

Q: Which reverse-splicing fitness does the source give for A111C A120C A145G C150G C169G U176C here?
A: 0.0119

Q: With A111C A120C C150U C169G U176G as the variant, how does the reverse-splicing fitness read?
A: 0.00557

Q: Which reverse-splicing fitness does the source give for A111C A120C C150U C169G U176A here?
A: 0.0124

Q: Which reverse-splicing fitness does the source give for A111C A120C C150U C169G U176C here?
A: 0.0164

Q: For A111C A120C A145U C169U U176C, which reverse-splicing fitness is on record?
A: 0.0445

Q: Which reverse-splicing fitness does the source give for A111C A120C A145U C169U U176A here?
A: 0.035

Q: Which reverse-splicing fitness does the source give for A111C A120C A145U C169U U176G here?
A: 0.00761

Q: With A111C A120C A145U C169G U176C as the variant, how does the reverse-splicing fitness read?
A: 0.0123

Q: Which reverse-splicing fitness does the source give for A111C A120C A145U C169G U176G here?
A: 0.00445

Q: For A111C A120C A145U C169G U176A, which reverse-splicing fitness is on record?
A: 0.0103

Q: For A111C A120G A145G C150G C169U U176A, which reverse-splicing fitness is on record?
A: 0.0115

Q: Which reverse-splicing fitness does the source give for A111C A120G A145G C150G C169U U176C here?
A: 0.0161

Q: For A111C A120G A145G C150G C169U U176G, which reverse-splicing fitness is on record?
A: 0.00619

Q: Which reverse-splicing fitness does the source give for A111C A120C A145G C150A C169U U176A here?
A: 0.0207

Q: With A111C A120C A145G C150A C169U U176C as the variant, how does the reverse-splicing fitness read?
A: 0.024

Q: With A111C A120C A145G C150A C169U U176G as the variant, how does the reverse-splicing fitness read?
A: 0.00728

Q: Which reverse-splicing fitness does the source give for A111C A120G A145G C150U C169U U176C here?
A: 0.0446
